{
  "source": "patent US20090018083A1",
  "about": "(ALBERT EINSTEIN SCHOOL OF MEDICINE OF YESHIVA UNIVERSITY, published 2009)",
  "key": {"PLZF BTB domain [1]": {"target": "T1, PLZF BTB domain (UniProt Q05516 6-126, limits assumed)", "T1 construct": "domain: BTB domain; Purified protein; also called BTB^PLZF", "T1 sequence (looked up)": "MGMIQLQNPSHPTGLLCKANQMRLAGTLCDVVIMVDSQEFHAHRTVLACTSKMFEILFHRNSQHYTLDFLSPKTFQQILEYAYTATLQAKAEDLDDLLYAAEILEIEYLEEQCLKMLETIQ", "assay": "SPR", "procedure": "(§1) SPR: Biotinylated corepressor peptides were coupled to streptavidin-coated sensor chips to a density of 800 response units (Biacore 2000). BCL6 or PLZF BTB protein was serially diluted in running buffer (10 mM Hepes, pH 7.4, 150 mM NaCl, 3 mM EDTA, 0.005% v/v surfactant P20) and injected at a flow rate of 5 μL/min."}, "[2]": {"target": "T2, BCL6-3C BTB domain (human BCL6 residues 5-129 with C8Q/C67R/C84N) (human, UniProt P41182 5-129)", "assay": "Ni-NTA co-purification with the His-tagged thioredoxin fusion, SDS-PAGE, stained gel"}, "[3]": {"target": "T2, BCL6-3C BTB domain (human BCL6 residues …)", "assay": "co-purification", "procedure": "(§2) In vitro binding assays. Co-purification: Equimolar amounts of His-tagged thioredoxin-corepressor fusion protein and BCL6 BTB or PLZF BTB domain were combined, incubated for at least two hours, and loaded onto a Ni-NTA spin column (Qiagen). The column was washed three times with 600 μl of wash buffer (200 mM NaCl, 20 mM Tris-HCl pH 8.0, 10 mM imidazole), and bound protein was released with 400 μl of elution buffer (200 mM NaCl, 20 mM Tris-HCl pH 8.0, 300 mM imidazole). Samples were analyzed on 10-20% SDS-PAGE gels and stained with Coomassie blue."}, "[4]": {"target": "T2, BCL6-3C BTB domain (human BCL6 residues …)", "assay": "non-denaturing PAGE mobility shift, constant BTB domain, increasing peptide", "procedure": "(§3) The mixture was analyzed by non-denaturing polyacrylamide gel electrophoresis (PAGE) and protein bands were visualized with either Coomassie blue staining or silver staining."}, "BCL6-3C BTB domain N21K": {"target": "BCL6-3C BTB domain N21K (human, UniProt P41182 5-129)", "assay": "co-purification", "procedure": "as §2"}, "BCL6-3C BTB domain H116A": {"target": "BCL6-3C BTB domain H116A (human, UniProt P41182 5-129)", "assay": "co-purification", "procedure": "as §2"}, "[5]": {"target": "T2, BCL6-3C BTB domain (human BCL6 residues …)", "assay": "native-gel mobility shift assay", "procedure": "as §3"}, "[6]": {"target": "T2, BCL6-3C BTB domain (human BCL6 residues …)", "assay": "SPR, biotinylated peptide on streptavidin chip, BCL6-3C BTB domain injected", "procedure": "“N.b.” indicates no detectable binding.\nas §1"}, "PLZF BTB domain [7]": {"target": "T1, PLZF BTB domain", "assay": "ITC", "procedure": "All components were in 150 mM NaCl, 20 mM Hepes pH 7.7, 1 mM TCEP. […] To correct for dilution and mixing effects, a series of control injections was carried out, in which the heat of dilution was measured in blank titrations by injecting the peptide into the buffer."}},
  "note": "No end group written: not given here.",
  "data": [
    {"binder": "TVKEAGRSIHEIPREELRHTPELPL (peptide, UniProt Q9Y618 1417-1441, looked up, also: biotinylated lysine in N-terminal tag residues (not given here), not shown: N-terminal residues left after TEV cleavage (BirA biotinylation motif, thrombin site))", "note": "[SMRT^1417-1441 peptide, biotinylated, immobilised for SPR]", "values": [
      {"measurement": "binding result", "setting": "PLZF BTB domain [1]", "result": "no binding"}
    ]},
    {"binder": "LVATVKEAGRSIHAAAA (also called AAAA mutant; not shown: N-terminal fusion or tag residues depend on the assay (His-Trx fusion in co-purification, biotinylated tag remnant in SP))", "note": "[SMRT-BBD with residues 1427-1430 replaced by alanines (EIPR->AAAA)]", "values": [
      {"measurement": "binding result", "setting": "[2]", "result": "no binding"}
    ]},
    {"binder": "LVATVKEAGRISHEIPR (The text calls it SMRT-BBD; also called IS mutant; not shown: N-terminal fusion or tag residues depend on the assay (His-Trx fusion in co-purification, biotinylated tag remnant in SP))", "note": "[SMRT-BBD with the SI to IS substitution at residues 1424-1425]", "values": [
      {"measurement": "binding result", "setting": "[2]", "result": "no binding"}
    ]},
    {"binder": "hexahistidine tagged fusion protein containing BCoR residues 542 to 753 (other, UniProt Q6W2J9 542-753, looked up, not shown: hexahistidine tagged fusion partner) SSCPRMGGTDAVITNVSGSVSSAGRPASASPAPNANADGTKTSRSSVETTPSVIQHVGQPPATPAKHSSSTSSKGAKASNPEPSFKANENGLPPSSIFLSPNEAFRSPPIPYPRSYLPYPAPEGIAVSPLSLHGKGPVYPHPVLLPNGSLFPGHLAPKPGLPYGLPTGRPEFVTYQDALGLGMVHPMLIPHTPIEITKEEKPERRSRSHERA", "values": [
      {"measurement": "binding result", "setting": "[3]", "result": "no binding"}
    ]},
    {"binder": "LVATVKEAGRSIHEIPR (also: biotinylated lysine 8 residues N-terminal to the peptide, not in the given chain, SPR form of the minimal fragment; not shown: N-terminal residues left after TEV cleavage (BirA biotinylation motif, thrombin site))", "note": "[SMRT^1414-1430 peptide, biotinylated, immobilised for SPR]", "values": [
      {"measurement": "binding result", "setting": "PLZF BTB domain [1]", "result": "no binding"}
    ]},
    {"binder": "RSEIISTAPSSWVVPGP (Purified peptide used for co-crystallisation; also called BCoR-BBD peptide; BCoR peptide)", "note": "[BCoR 498-514 peptide (BCoR BBD)]", "values": [
      {"measurement": "binding result", "setting": "[4]", "result": "binds"}
    ]},
    {"binder": "hexahistidine tagged fusion protein containing BCoR residues 112 to 342 (other, UniProt Q6W2J9 112-342, looked up, not shown: hexahistidine tagged fusion partner) LGFSSERNPEMQFKPNTPETVEASAVSGKPPNGFSAIYKTPPGIQKSAVATAEALGLDRPASDKQSPLNINGASYLRLPWVNPYMEGATPAIYPFLDSPNKYSLNMYKALLPQQSYSLAQPLYSPVCTNGERFLYLPPPHYVGPHIPSSLASPMRLSTPSASPAIPPLVHCADKSLPWKMGVSPGNPVDSHAYPHIQNSKQPRVPSAKAVTSGLPGDTALLLPPSPRPSPR", "values": [
      {"measurement": "binding result", "setting": "[3]", "result": "no binding"}
    ]},
    {"binder": "hexahistidine tagged fusion protein containing BCoR residues 317 to 547 (other, UniProt Q6W2J9 317-547, looked up, not shown: hexahistidine tagged fusion partner) SAKAVTSGLPGDTALLLPPSPRPSPRVHLPTQPAADTYSEFHKHYARISTSPSVALSKPYMTVSSEFPAARLSNGKYPKAPEGGEGAQPVPGHARKTAVQDRKDGSSPPLLEKQTVTKDVTDKPLDLSSKVVDVDASKADHMKKMAPTVLVHSRAGSGLVLSGSEIPKETLSPPGNGCAIYRSEIISTAPSSWVVPGPSPNEENNGKSMSLKNKALDWAIPQQRSSSCPRM", "values": [
      {"measurement": "binding result", "setting": "BCL6-3C BTB domain N21K", "result": "no binding"},
      {"measurement": "binding result", "setting": "BCL6-3C BTB domain H116A", "result": "no binding"}
    ]},
    {"binder": "RSEIISTAPWSSVVPGP", "note": "[BCoR peptide with the S507W/W509S double mutation]", "values": [
      {"measurement": "binding result", "setting": "[5]", "result": "no binding"}
    ]},
    {"binder": "LVATVKEAGRSIHEIPREELRHTPELPL (peptide, UniProt Q9Y618 1414-1441, looked up, also: biotinylated lysine in N-terminal tag residues (not given here), not shown: N-terminal residues left after TEV cleavage (BirA biotinylation motif, thrombin site))", "note": "[SMRT^1414-1441 peptide (fragment d), biotinylated, immobilised for SPR]", "values": [
      {"measurement": "binding result", "setting": "PLZF BTB domain [1]", "result": "no binding"},
      {"measurement": "Kd", "setting": "[6]", "result": 15.8, "unit": "nM"}
    ]},
    {"binder": "LVATVKEAGRSIHEIPR (Made by thrombin digestion of the fusion protein)", "note": "[SMRT^1414-1430 peptide (SMRT-BBD), no additional N-terminal residues]", "values": [
      {"measurement": "binding result", "setting": "PLZF BTB domain [7]", "result": "no binding"}
    ]},
    {"binder": "RSEIISTAPASAVAPGP", "note": "[BCoR peptide with the S507A/W509A/V511A triple mutation]", "values": [
      {"measurement": "binding result", "setting": "[5]", "result": "no binding"}
    ]}
  ]
}
